Test results published in PMC9226187, “Probing TDP-43 condensation using an in silico designed aptamer”.

Target: TDP-43 RRM1-2 (UniProt Q13148 102-269)
Test: BLI; BLI: 10 mM potassium phosphate pH 7.2, 150 mM KCl, 0.01% Tween20, 25 °C; biotin-RNA on streptavidin sensors, protein 20 nM-20 µM; PAINT in PBS
Details: protein: recombinant, tags: His6-SUMO tag cleaved (TEV)

Sequence of TDP-43 RRM1-2 (Q13148 102-269): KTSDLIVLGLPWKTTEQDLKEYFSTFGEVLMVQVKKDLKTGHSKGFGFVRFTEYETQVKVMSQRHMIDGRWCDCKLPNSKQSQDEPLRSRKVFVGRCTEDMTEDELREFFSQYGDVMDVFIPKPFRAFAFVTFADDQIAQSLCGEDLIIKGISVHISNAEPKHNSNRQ

Binder	Kd (label: 5' biotin)	Kd (label: 3' biotin, linear, single-stranded)
AGCAACACCG (ssRNA) [nApt-1]	1730 nM	
CGGUGUUGCU (ssRNA) [Apt-1]		100 ± 10 nM
